Experimental data as given in patent publication US5583112A, “Saponin-antigen conjugates and the use thereof” (priority 1992, dated 1996).

Experiments:
anti-lysozyme IgG = test: Immunization of mice with QA-21-lysozyme conjugate (total anti-lysozyme IgG); type: in vivo, C57bl/6 mice; conditions: days 0 and 14 intradermal; bled day 21
Experimental: The QA-21-lysozyme from Example 18 conjugate was used to immunize mice (C57bl/6), with and without added QA-21 as adjuvant. Ten nice (9 weeks of age at the beginning of the immunization) were immunized per group. Immunizations were made intradermally at day 0 and day 14 with a total volume of 0.2 ml (PBS buffer, pH 7). The vaccines contained the following dosages of antigen and adjuvant:
The mice were bled on day 21 and the anti-lysozyme IgG titers were determined. Microtitre plates (in the alternative, Co-bind® plates from Micromembranes may be used) were incubated at 4° C. overnight with 10 μg/ml of lysozyme in about 100 μl of PBS. The plates were then washed two times with PBS and blocked for one hour with 150 μl/well of 10% normal goat serum at room temperature. The plates were then washed two times with 0.05% Tween-20 in water.
The mice sera were incubated with the lysozyme coated plates as follows. The individual serum samples (10μl) diluted with 10% normal goat serum in PBS to make 100 μl, as well as serial dilutions thereof (1:10) were added to the wells and incubated for 1 hour at room temperature. The wells were then washed four times with 0.05% Tween-20. […] The conjugate was then detected by tetramethylbenzidine substrate (Bos, E.S. et al., J. Immunoassay 2:187 (1981)). After incubation, the OD450 was read. […]

[1] = tested on: anti-lysozyme antibodies (IgG1, IgG2B, IgG2A, IgM, IgG3); test: Isotyping of anti-lysozyme antibodies; type: in vivo, C57bl/6 mice; conditions: FIG. 22
Experimental: Next, the anti-lysozyme antibodies produced by each group of mice were isotyped. Microtitre plates were incubated at 4° C. overnight with 10 μg/ml of lysozyme in about 100 μl of PBS. The plates were then washed two times with PBS and blocked for one hour with 150 μl/well of 10% normal goat serum in PBS at room temperature. The plates were then washed two times with 0.05% Tween-20 in water.
The mice sera were incubated with the lysozyme coated plates as follows. The serum samples were tested in separate lanes for IgG1, IgG2B, IgG2A, IgM and IgG3. The individual serum samples (10 μl) were diluted with 10% normal goat serum in PBS to make 100 μl, and serial dilutions thereof (1:10) were added to the wells and incubated for 1 hour at room temperature. The wells were then washed four times with 0.05% Tween-20. […] The conjugates were then detected by adding 100 μl per well of 1 mg/ml p-nitrophenylphosphate in 0.1M borate, pH 9.0. After incubation for 6 and 24 hours at room temperature, tile OD410 was read.

Substance	Anti-lysozyme antibody response (immunogenicity) (anti-lysozyme IgG)	Antibody isotypes produced [1]
lysozyme-QA-21 conjugate: QA-21 coupled via glucuronic acid to lysozyme, 1:1 molar ratio	higher antibody titer than either of the groups receiving free QA-21	–
lysozyme: a poorly immunogenic, very hydrophilic protein	poorly immunogenic	only IgM antibodies were produced
